Publication PMC8092703, “Structural Basis for the Shared Neutralization Mechanism of Three Classes of Human Papillomavirus Type 58 Antibodies with Disparate Modes of Binding” (Journal of Virology, 2021)

T1: HPV58 pseudovirus (PsV58) capsid (human papillomavirus type 58, UniProt P26535 1-524; P26538 1-472)
T1 sequence 1: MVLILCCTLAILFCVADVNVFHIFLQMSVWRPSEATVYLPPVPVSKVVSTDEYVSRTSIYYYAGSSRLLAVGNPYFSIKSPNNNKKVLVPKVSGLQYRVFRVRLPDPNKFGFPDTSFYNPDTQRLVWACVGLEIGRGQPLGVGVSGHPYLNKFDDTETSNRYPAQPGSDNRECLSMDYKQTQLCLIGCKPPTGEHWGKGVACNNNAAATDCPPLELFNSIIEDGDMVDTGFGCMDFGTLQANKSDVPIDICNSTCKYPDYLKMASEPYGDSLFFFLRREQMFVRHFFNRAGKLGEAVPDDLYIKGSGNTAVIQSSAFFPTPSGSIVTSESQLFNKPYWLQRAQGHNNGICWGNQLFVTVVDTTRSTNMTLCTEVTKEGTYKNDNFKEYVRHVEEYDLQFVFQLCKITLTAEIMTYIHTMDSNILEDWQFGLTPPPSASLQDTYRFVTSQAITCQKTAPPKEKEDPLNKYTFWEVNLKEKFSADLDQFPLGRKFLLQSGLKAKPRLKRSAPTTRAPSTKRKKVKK
T1 sequence 2: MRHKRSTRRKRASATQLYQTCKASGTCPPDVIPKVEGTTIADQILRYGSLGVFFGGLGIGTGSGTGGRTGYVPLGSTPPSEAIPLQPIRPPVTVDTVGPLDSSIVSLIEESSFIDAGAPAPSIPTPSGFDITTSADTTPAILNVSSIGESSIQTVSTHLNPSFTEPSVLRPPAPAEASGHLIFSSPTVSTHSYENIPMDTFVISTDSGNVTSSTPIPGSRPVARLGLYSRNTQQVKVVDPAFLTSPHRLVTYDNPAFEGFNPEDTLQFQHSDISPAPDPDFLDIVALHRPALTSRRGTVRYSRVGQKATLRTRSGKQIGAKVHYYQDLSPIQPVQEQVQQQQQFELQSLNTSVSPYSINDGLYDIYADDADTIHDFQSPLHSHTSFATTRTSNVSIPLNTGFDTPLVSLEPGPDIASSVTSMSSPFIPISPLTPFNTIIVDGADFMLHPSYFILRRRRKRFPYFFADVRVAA

B1: nAb 5G9 (anti-HPV58 neutralizing monoclonal antibody, full length) (antibody, V domains shown)
VH: EVMLVESGGGLVKPGGSLKLSCVASGFTFSDYAMSWGRQTPEKRLEWVATISSGGVSTYHPDSVKGRFTMSRDNAKNTLYLQMSSLRSEDTAKYYCARGGGRYAMDYWGQGTSVTVS
VL: DVQITQSPSYLAASPGETITINCRASKSINKYLAWYQEKPGTTNKLLIYSGSTLQSGIPSRFSGRGSGTDFTLTISSLEPEDLAVYYCQQYNEYPWTFGGGTKLEIKR
notes: variable domain of the heavy chain of nAb 5G9; variable domain of the light chain of nAb 5G9; Mouse IgG2a; source: mouse hybridoma, ascites of BALB/c mice, purified (protein A-agarose)
B2: Fab fragment of nAb 5G9 (Fab, V domains shown)
VH: B1 VH
VL: B1 VL
notes: variable domain of the heavy chain of nAb 5G9; variable domain of the light chain of nAb 5G9; Fab of a mouse IgG2a; the Fab model in the structure is a homology model; also called Fab 5G9; 5G9 Fab; source: papain digest of the purified nAb, separated from Fc on a TSKgel DEAE-5PW column
B3: nAb A4B4 (anti-HPV58 neutralizing monoclonal antibody, full length) (antibody, V domains shown)
VH: QVTLKESGPGILQPSQTLSLTCSFSGFSLSTSGMGVGWIRQPSGKGLEWLAHIWWNDDKNYHPALKSRLTISKDTSSNRVFLNIASVDTADTATYYCARIHYVTDALDYWGQGTSVTVS
VL: DIVMSQSPSSLAVSVGEKVTMSCKSSQSLLYSSIQKNYLAWYQQKPGQSPKLLIYWASIRESGVPDRFTGSGSGTDFTLTISSVKAEDLAVYYCQRYYGYPWTFGGGTKLEIKR
notes: variable domain of the heavy chain of nAb A4B4; variable domain of the light chain of nAb A4B4; Mouse IgG2a; source: mouse hybridoma, ascites of BALB/c mice, purified (protein A-agarose)
B4: Fab fragment of nAb A4B4 (Fab, V domains shown)
VH: B3 VH
VL: B3 VL
notes: variable domain of the heavy chain of nAb A4B4; variable domain of the light chain of nAb A4B4; Fab of a mouse IgG2a; the Fab model in the structure is a homology model; also called Fab A4B4; A4B4 Fab; source: papain digest of the purified nAb, separated from Fc on a TSKgel DEAE-5PW column
B5: nAb 2H3 (anti-HPV58 neutralizing monoclonal antibody, full length) (antibody, V domains shown)
VH: QVQLLQSGAELVRPGSSVKISCKASGYVFTSYWMHWVKQRPGQGLEWIGQIYPGDGGTHYNGNFRDKATLTADKSSSTAYMHLSSLTSEDSAVYFCARKIYDGYGFSYWGQGTLVTVS
VL: DIQMTQSPASLSVSVGETVTITCRASENIYSNLIWYQQKQGKSPQLLVYAATNLADGVPSRFSGSGSGTQYSLKINSLQSEDFGSYYCQHFWGTPLTFGAGTKLEIKR
notes: variable domain of the heavy chain of nAb 2H3; variable domain of the light chain of nAb 2H3; Mouse IgG1; source: mouse hybridoma, ascites of BALB/c mice, purified (protein A-agarose)
B6: Fab fragment of nAb 2H3 (Fab, V domains shown)
VH: B5 VH
VL: B5 VL
notes: variable domain of the heavy chain of nAb 2H3; variable domain of the light chain of nAb 2H3; Fab of a mouse IgG1; the Fab model in the structure is a homology model; also called Fab 2H3; 2H3 Fab; source: papain digest of the purified nAb, separated from Fc on a TSKgel DEAE-5PW column

Key:
[1] = target: HPV58 virus-like particles (VLPs) self-assembled from recombinant HPV58 L1 (human papillomavirus type 58, UniProt P26535 1-524, The printed source is GenBank AFS33402.1, which may differ from P26535 at isolate-variant positions. The start is taken by convention at MSVWRPSE (Met27 of P26535), and paper numbering + 26 = P26535 n); assay: ELISA; inhibition ELISA; HPV58 VLPs coated; diluted monoclonal antibody 1 h at 37°C, then rabbit standard antiserum against HPV58 VLPs 30 min at 37°C; HRP goat anti-rabbit IgG; inhibition rate; settings: both partners purified
[2] = target: T1, HPV58 pseudovirus (PsV58) capsid; assay: cell-based or functional assay
[3] = target: T2, HPV58 pseudovirus (PsV58) capsid (human papillomavirus type 58, UniProt P26535 1-524; P26538 1-472, T=7d capsid of 72 L1 pentamers. L2 copy number is unknown and no L2 density was seen. Expressed from p58sheLL, whose L1 and L2 may carry isolate-variant residues.); assay: cryo-EM structure; purified PsV58 mixed with Fab in 1.5-fold excess (pseudovirus-Fab molar ratio 1:540), 37°C for 2 h; icosahedral and 2-fold subparticle reconstruction; settings: both partners purified
[4] = target: T2, HPV58 pseudovirus (PsV58) capsid; assay: cell-based or functional assay

Binder	inhibition rate of the nAb against rabbit antiserum to HPV58 VLPs [1] [%]	neutralization titer, pseudovirus-based neutralization assay in 293FT cells (first well 1 μg/ml nAb, 2-fold dilutions) [2]	stoichiometry N [3]	IC50 of neutralization of PsV58 by the Fab form [4] [µg/mL]
B1	59	410000	–	–
B2	–	–	1 Fab per capsomer	–
B3	71	12800	–	–
B4	–	–	4 Fabs per asymmetric unit	1.28
B5	87	51200	–	–
B6	–	–	4 Fabs per asymmetric unit	–
